Values quoted from earlier work in patent publication US9084831B2, “Molecular probe precursor for imaging of pancreatic islet, and use thereof” (Kyoto University, priority 2008, dated 2015).

Conditions: mouse, in vivo, iv; cited from earlier work

Substance: ^125I labeled exendin(9-39): exendin(9-39), a GLP-1R ligand, 125I-labeled by Bolton-Hunter labeling (PerkinElmer NEX 335)
- accumulation and binding among organs: accumulates selectively and specifically in the pancreas among organs
